Target: T1, CD3ε homodimer protein (human, UniProt P07766 23-126, limits assumed, sulfo-tag or biotin label in the ECL assays; amine-coupled to the chip in SPR)
T1 construct: also called human CD3ε homodimer protein; CD3 (CD3ε)
Assay: SPR Biacore T200; CD3ε homodimer on CM4 chip;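 further: Single-residue variant antibodies injected as analyte over CD3ε homodimer immobilized by amine coupling, run at 25 °C in HBS-EP+ buffer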

T1 sequence (P07766 23-126 limits assumed): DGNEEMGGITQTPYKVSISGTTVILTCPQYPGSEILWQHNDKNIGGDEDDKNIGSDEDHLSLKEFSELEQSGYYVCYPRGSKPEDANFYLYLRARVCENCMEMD

Row | Binder | ratio of amounts bound Z=Y/X (altered form / CE115HA000)
1 | CE115HA000 Y58Q one-arm antibody (antibody, human IgG1, kappa, L234A L235A, N297A, name in Kabat numbering) heavy: QVQLVESGGGVVQPGRSLRLSCAASGFTFSNAWMHWVRQAPGKGLEWVAQIKAKSNNYATQYAESVKGRFTISRDDSKNSLYLQMNSLKTEDTAVYYCRYVHYGAYYGVDAWGQGTTVTVSSASTKGPSVFPLAPSSKSTSGGTAALGCLVKDYFPEPVTVSWNSGALTSGVHTFPAVLQSSGLYSLSSVVTVPSSSLGTQTYICNVNHKPSNTKVDKKVEPKSCDKTHTCPPCPAPEAAGGPSVFLFPPKPKDTLMISRTPEVTCVVVDVSHEDPEVKFNWYVDGVEVHNAKTKPREEQYASTYRVVSVLTVLHQDWLNGKEYKCKVSNKALPAPIEKTISKAKGQPREPQVYTLPPSRCELTKNQVSLSCAVKGFYPSDIAVEWESNGQPENNYKTTPPVLDSDGSFFLVSKLTVDKSRWQQGNVFSCSVMHEALHNHYTQKSLSLSPDYKDDDDK EPKSSDKTHTCPPCPAPELLGGPSVFLFPPKPKDTLMISRTPEVTCVVVDVSHEDPEVKFNWYVDGVEVHNAKTKPREEQYNSTYRVVSVLTVLHQDWLNGKEYKCKVSNKALPAPIEKTISKAKGQPREPQVCTLPPSRDELTKNQVSLWCLVKGFYPSDIAVEWESNGQPENNYKTTPPVLDSDGSFFLYSKLTVDKSRWQQGNVFSCSVMHEALHNRYTQKSLSLSP light: DIVMTQSPLSLPVTPGEPASISCRSSQSLVHSNRNTYLHWYQQKPGQAPRLLIYKVSNRFSGVPDRFSGSGSGTDFTLKISRVEAEDVGVYYCGQGTQVPYTFGQGTKLEIKRTVAAPSVFIFPPSDEQLKSGTASVVCLLNNFYPREAKVQWKVDNALQSGNSQESVTEQDSKDSTYSLSSTLTLSKADYEKHKVYACEVTHQGLSSPVTKSFNRGEC | 0.19
2 | CE115HA000 Y58S one-arm antibody (antibody, human IgG1, kappa, L234A L235A, N297A, name in Kabat numbering) heavy: QVQLVESGGGVVQPGRSLRLSCAASGFTFSNAWMHWVRQAPGKGLEWVAQIKAKSNNYATSYAESVKGRFTISRDDSKNSLYLQMNSLKTEDTAVYYCRYVHYGAYYGVDAWGQGTTVTVSSASTKGPSVFPLAPSSKSTSGGTAALGCLVKDYFPEPVTVSWNSGALTSGVHTFPAVLQSSGLYSLSSVVTVPSSSLGTQTYICNVNHKPSNTKVDKKVEPKSCDKTHTCPPCPAPEAAGGPSVFLFPPKPKDTLMISRTPEVTCVVVDVSHEDPEVKFNWYVDGVEVHNAKTKPREEQYASTYRVVSVLTVLHQDWLNGKEYKCKVSNKALPAPIEKTISKAKGQPREPQVYTLPPSRCELTKNQVSLSCAVKGFYPSDIAVEWESNGQPENNYKTTPPVLDSDGSFFLVSKLTVDKSRWQQGNVFSCSVMHEALHNHYTQKSLSLSPDYKDDDDK EPKSSDKTHTCPPCPAPELLGGPSVFLFPPKPKDTLMISRTPEVTCVVVDVSHEDPEVKFNWYVDGVEVHNAKTKPREEQYNSTYRVVSVLTVLHQDWLNGKEYKCKVSNKALPAPIEKTISKAKGQPREPQVCTLPPSRDELTKNQVSLWCLVKGFYPSDIAVEWESNGQPENNYKTTPPVLDSDGSFFLYSKLTVDKSRWQQGNVFSCSVMHEALHNRYTQKSLSLSP light: DIVMTQSPLSLPVTPGEPASISCRSSQSLVHSNRNTYLHWYQQKPGQAPRLLIYKVSNRFSGVPDRFSGSGSGTDFTLKISRVEAEDVGVYYCGQGTQVPYTFGQGTKLEIKRTVAAPSVFIFPPSDEQLKSGTASVVCLLNNFYPREAKVQWKVDNALQSGNSQESVTEQDSKDSTYSLSSTLTLSKADYEKHKVYACEVTHQGLSSPVTKSFNRGEC | 0.18
3 | CE115HA000 Y59A one-arm antibody (antibody, human IgG1, kappa, L234A L235A, N297A, name in Kabat numbering) heavy: QVQLVESGGGVVQPGRSLRLSCAASGFTFSNAWMHWVRQAPGKGLEWVAQIKAKSNNYATYAAESVKGRFTISRDDSKNSLYLQMNSLKTEDTAVYYCRYVHYGAYYGVDAWGQGTTVTVSSASTKGPSVFPLAPSSKSTSGGTAALGCLVKDYFPEPVTVSWNSGALTSGVHTFPAVLQSSGLYSLSSVVTVPSSSLGTQTYICNVNHKPSNTKVDKKVEPKSCDKTHTCPPCPAPEAAGGPSVFLFPPKPKDTLMISRTPEVTCVVVDVSHEDPEVKFNWYVDGVEVHNAKTKPREEQYASTYRVVSVLTVLHQDWLNGKEYKCKVSNKALPAPIEKTISKAKGQPREPQVYTLPPSRCELTKNQVSLSCAVKGFYPSDIAVEWESNGQPENNYKTTPPVLDSDGSFFLVSKLTVDKSRWQQGNVFSCSVMHEALHNHYTQKSLSLSPDYKDDDDK EPKSSDKTHTCPPCPAPELLGGPSVFLFPPKPKDTLMISRTPEVTCVVVDVSHEDPEVKFNWYVDGVEVHNAKTKPREEQYNSTYRVVSVLTVLHQDWLNGKEYKCKVSNKALPAPIEKTISKAKGQPREPQVCTLPPSRDELTKNQVSLWCLVKGFYPSDIAVEWESNGQPENNYKTTPPVLDSDGSFFLYSKLTVDKSRWQQGNVFSCSVMHEALHNRYTQKSLSLSP light: DIVMTQSPLSLPVTPGEPASISCRSSQSLVHSNRNTYLHWYQQKPGQAPRLLIYKVSNRFSGVPDRFSGSGSGTDFTLKISRVEAEDVGVYYCGQGTQVPYTFGQGTKLEIKRTVAAPSVFIFPPSDEQLKSGTASVVCLLNNFYPREAKVQWKVDNALQSGNSQESVTEQDSKDSTYSLSSTLTLSKADYEKHKVYACEVTHQGLSSPVTKSFNRGEC | 0.85

Results, then the binder that gave them:

Row | ratio of amounts bound Z=Y/X (altered form / CE115HA000) | Binder
4 | 0.7 | CE115HA000 Y59D one-arm antibody (antibody, human IgG1, kappa, L234A L235A, N297A, name in Kabat numbering) heavy: QVQLVESGGGVVQPGRSLRLSCAASGFTFSNAWMHWVRQAPGKGLEWVAQIKAKSNNYATYDAESVKGRFTISRDDSKNSLYLQMNSLKTEDTAVYYCRYVHYGAYYGVDAWGQGTTVTVSSASTKGPSVFPLAPSSKSTSGGTAALGCLVKDYFPEPVTVSWNSGALTSGVHTFPAVLQSSGLYSLSSVVTVPSSSLGTQTYICNVNHKPSNTKVDKKVEPKSCDKTHTCPPCPAPEAAGGPSVFLFPPKPKDTLMISRTPEVTCVVVDVSHEDPEVKFNWYVDGVEVHNAKTKPREEQYASTYRVVSVLTVLHQDWLNGKEYKCKVSNKALPAPIEKTISKAKGQPREPQVYTLPPSRCELTKNQVSLSCAVKGFYPSDIAVEWESNGQPENNYKTTPPVLDSDGSFFLVSKLTVDKSRWQQGNVFSCSVMHEALHNHYTQKSLSLSPDYKDDDDK EPKSSDKTHTCPPCPAPELLGGPSVFLFPPKPKDTLMISRTPEVTCVVVDVSHEDPEVKFNWYVDGVEVHNAKTKPREEQYNSTYRVVSVLTVLHQDWLNGKEYKCKVSNKALPAPIEKTISKAKGQPREPQVCTLPPSRDELTKNQVSLWCLVKGFYPSDIAVEWESNGQPENNYKTTPPVLDSDGSFFLYSKLTVDKSRWQQGNVFSCSVMHEALHNRYTQKSLSLSP light: DIVMTQSPLSLPVTPGEPASISCRSSQSLVHSNRNTYLHWYQQKPGQAPRLLIYKVSNRFSGVPDRFSGSGSGTDFTLKISRVEAEDVGVYYCGQGTQVPYTFGQGTKLEIKRTVAAPSVFIFPPSDEQLKSGTASVVCLLNNFYPREAKVQWKVDNALQSGNSQESVTEQDSKDSTYSLSSTLTLSKADYEKHKVYACEVTHQGLSSPVTKSFNRGEC
5 | 0.86 | CE115HA000 Y59E one-arm antibody (antibody, human IgG1, kappa, L234A L235A, N297A, name in Kabat numbering) heavy: QVQLVESGGGVVQPGRSLRLSCAASGFTFSNAWMHWVRQAPGKGLEWVAQIKAKSNNYATYEAESVKGRFTISRDDSKNSLYLQMNSLKTEDTAVYYCRYVHYGAYYGVDAWGQGTTVTVSSASTKGPSVFPLAPSSKSTSGGTAALGCLVKDYFPEPVTVSWNSGALTSGVHTFPAVLQSSGLYSLSSVVTVPSSSLGTQTYICNVNHKPSNTKVDKKVEPKSCDKTHTCPPCPAPEAAGGPSVFLFPPKPKDTLMISRTPEVTCVVVDVSHEDPEVKFNWYVDGVEVHNAKTKPREEQYASTYRVVSVLTVLHQDWLNGKEYKCKVSNKALPAPIEKTISKAKGQPREPQVYTLPPSRCELTKNQVSLSCAVKGFYPSDIAVEWESNGQPENNYKTTPPVLDSDGSFFLVSKLTVDKSRWQQGNVFSCSVMHEALHNHYTQKSLSLSPDYKDDDDK EPKSSDKTHTCPPCPAPELLGGPSVFLFPPKPKDTLMISRTPEVTCVVVDVSHEDPEVKFNWYVDGVEVHNAKTKPREEQYNSTYRVVSVLTVLHQDWLNGKEYKCKVSNKALPAPIEKTISKAKGQPREPQVCTLPPSRDELTKNQVSLWCLVKGFYPSDIAVEWESNGQPENNYKTTPPVLDSDGSFFLYSKLTVDKSRWQQGNVFSCSVMHEALHNRYTQKSLSLSP light: DIVMTQSPLSLPVTPGEPASISCRSSQSLVHSNRNTYLHWYQQKPGQAPRLLIYKVSNRFSGVPDRFSGSGSGTDFTLKISRVEAEDVGVYYCGQGTQVPYTFGQGTKLEIKRTVAAPSVFIFPPSDEQLKSGTASVVCLLNNFYPREAKVQWKVDNALQSGNSQESVTEQDSKDSTYSLSSTLTLSKADYEKHKVYACEVTHQGLSSPVTKSFNRGEC
6 | 0.94 | CE115HA000 Y59S one-arm antibody (antibody, human IgG1, kappa, L234A L235A, N297A, name in Kabat numbering) heavy: QVQLVESGGGVVQPGRSLRLSCAASGFTFSNAWMHWVRQAPGKGLEWVAQIKAKSNNYATYSAESVKGRFTISRDDSKNSLYLQMNSLKTEDTAVYYCRYVHYGAYYGVDAWGQGTTVTVSSASTKGPSVFPLAPSSKSTSGGTAALGCLVKDYFPEPVTVSWNSGALTSGVHTFPAVLQSSGLYSLSSVVTVPSSSLGTQTYICNVNHKPSNTKVDKKVEPKSCDKTHTCPPCPAPEAAGGPSVFLFPPKPKDTLMISRTPEVTCVVVDVSHEDPEVKFNWYVDGVEVHNAKTKPREEQYASTYRVVSVLTVLHQDWLNGKEYKCKVSNKALPAPIEKTISKAKGQPREPQVYTLPPSRCELTKNQVSLSCAVKGFYPSDIAVEWESNGQPENNYKTTPPVLDSDGSFFLVSKLTVDKSRWQQGNVFSCSVMHEALHNHYTQKSLSLSPDYKDDDDK EPKSSDKTHTCPPCPAPELLGGPSVFLFPPKPKDTLMISRTPEVTCVVVDVSHEDPEVKFNWYVDGVEVHNAKTKPREEQYNSTYRVVSVLTVLHQDWLNGKEYKCKVSNKALPAPIEKTISKAKGQPREPQVCTLPPSRDELTKNQVSLWCLVKGFYPSDIAVEWESNGQPENNYKTTPPVLDSDGSFFLYSKLTVDKSRWQQGNVFSCSVMHEALHNRYTQKSLSLSP light: DIVMTQSPLSLPVTPGEPASISCRSSQSLVHSNRNTYLHWYQQKPGQAPRLLIYKVSNRFSGVPDRFSGSGSGTDFTLKISRVEAEDVGVYYCGQGTQVPYTFGQGTKLEIKRTVAAPSVFIFPPSDEQLKSGTASVVCLLNNFYPREAKVQWKVDNALQSGNSQESVTEQDSKDSTYSLSSTLTLSKADYEKHKVYACEVTHQGLSSPVTKSFNRGEC
